The source of these data is patent publication US5939263.

This assay addresses murine neuropeptide Y Yx receptor (murine). The experiment in a line: displacement of ^125 I-PYY (90 pM) from membranes of COS-7 cells transfected with the murine NPY Yx receptor.

A word on the IC50: it is the concentration needed to halve the response being measured. A high value points to lower potency.

Leu^31, Pro^34 !NPY (peptide) gave an IC50 of 9 nM.

Substance NPY(2-36) (peptide) came in with an IC50 of 16 nM.

In turn, NPY(13-36) (peptide) displayed an IC50 of 134 nM.

The substance Neuropeptide Y came in with a half-inhibitory concentration (IC50) of 6 nM.

For the substance peptide YY, the half-inhibitory concentration (IC50) is 14 nM.
